Literature values, collected in article PMC5979539 (International Journal of Molecular Sciences, 2018).

System: PC membranes
Settings: cited from earlier work
From the text: Despite the above-discussed limitations, we were able to determine the SPR binding parameters of PDC-109. Affinity constants (Table 4) indicated weak to moderate binding for carbohydrates, at least if compared to the considerably higher affinity (KA~10^7 M^−1) found for PC membranes.

B1: PDC-109: main protein of bovine seminal plasma, purified from bull seminal plasma; glycosylated and non-glycosylated forms (protein)
chain: DQDEGVSTEPTQDGPAELPEDEECVFPFVYRNRKHFDCTVHGSLFPWCSLDADYVGRWKYCAQRDYAKCVFPFIYGGKKYETCTKIGSMWMSWCSLSPNYDKDRAWKYC
modifications: mixture of the glycosylated (O-linked trisaccharide, Neu5Ac-Hex-HexNAc) and non-glycosylated forms
- KA for PC membranes: ~ 10^7 M^−1
